Test results reported in patent US20140072613A1, “Compositions and Methods for Treating Cutaneous Scarring” (priority 2012, published 2014).

Tests used:
Assay in all cases: cell-based or functional assay
WNK2(h) (human) = WNK2(h) (human) (UniProt Q9Y3S1)
Fyn(h) (human) = Fyn(h) (human) (UniProt P06241)
SAPK2b(h) (human) = SAPK2b(h) (human) (UniProt Q15759)
GRK6(h) (human) = GRK6(h) (human) (UniProt P43250)
Pyk2 (h) (human) = Pyk2 (h) (human) (UniProt Q14289)
FAK(h) (human) = FAK(h) (human) (UniProt Q05397)
Sequence of FAK(h) (human) (Q05397 whole entry): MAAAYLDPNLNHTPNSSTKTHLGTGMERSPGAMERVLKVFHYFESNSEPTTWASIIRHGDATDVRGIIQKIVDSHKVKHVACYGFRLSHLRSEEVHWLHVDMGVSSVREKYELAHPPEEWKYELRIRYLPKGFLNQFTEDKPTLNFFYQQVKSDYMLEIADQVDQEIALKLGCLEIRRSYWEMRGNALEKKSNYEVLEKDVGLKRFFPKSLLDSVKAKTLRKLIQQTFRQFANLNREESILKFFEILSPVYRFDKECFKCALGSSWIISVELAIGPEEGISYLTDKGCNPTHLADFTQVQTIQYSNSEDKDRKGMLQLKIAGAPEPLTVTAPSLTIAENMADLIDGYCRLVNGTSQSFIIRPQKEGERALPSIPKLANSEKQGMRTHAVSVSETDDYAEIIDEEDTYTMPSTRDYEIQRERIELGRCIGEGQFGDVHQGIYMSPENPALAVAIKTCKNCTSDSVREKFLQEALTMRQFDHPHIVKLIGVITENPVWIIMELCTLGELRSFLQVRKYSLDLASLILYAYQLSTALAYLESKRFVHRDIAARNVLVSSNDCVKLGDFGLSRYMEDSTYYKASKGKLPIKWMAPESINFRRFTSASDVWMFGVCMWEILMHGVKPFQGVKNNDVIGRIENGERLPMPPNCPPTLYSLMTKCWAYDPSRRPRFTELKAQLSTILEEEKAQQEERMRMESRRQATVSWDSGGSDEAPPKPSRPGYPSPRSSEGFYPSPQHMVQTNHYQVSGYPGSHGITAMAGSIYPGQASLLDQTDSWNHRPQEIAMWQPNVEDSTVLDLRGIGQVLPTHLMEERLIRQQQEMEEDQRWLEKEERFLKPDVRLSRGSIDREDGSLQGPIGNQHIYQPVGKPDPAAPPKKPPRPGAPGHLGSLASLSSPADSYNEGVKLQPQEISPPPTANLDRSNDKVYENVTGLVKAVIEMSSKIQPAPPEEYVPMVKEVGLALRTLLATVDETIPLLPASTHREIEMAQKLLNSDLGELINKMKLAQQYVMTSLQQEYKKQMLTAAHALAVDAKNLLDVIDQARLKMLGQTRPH

PKCα(h) (human) = PKCα(h) (human) (UniProt P17252)
Abl(Y253F)(h) (human) = Abl(Y253F)(h) (human) (UniProt P00519)
Sequence of Abl(Y253F)(h) (human) (P00519 27-1130 Y253F limits assumed): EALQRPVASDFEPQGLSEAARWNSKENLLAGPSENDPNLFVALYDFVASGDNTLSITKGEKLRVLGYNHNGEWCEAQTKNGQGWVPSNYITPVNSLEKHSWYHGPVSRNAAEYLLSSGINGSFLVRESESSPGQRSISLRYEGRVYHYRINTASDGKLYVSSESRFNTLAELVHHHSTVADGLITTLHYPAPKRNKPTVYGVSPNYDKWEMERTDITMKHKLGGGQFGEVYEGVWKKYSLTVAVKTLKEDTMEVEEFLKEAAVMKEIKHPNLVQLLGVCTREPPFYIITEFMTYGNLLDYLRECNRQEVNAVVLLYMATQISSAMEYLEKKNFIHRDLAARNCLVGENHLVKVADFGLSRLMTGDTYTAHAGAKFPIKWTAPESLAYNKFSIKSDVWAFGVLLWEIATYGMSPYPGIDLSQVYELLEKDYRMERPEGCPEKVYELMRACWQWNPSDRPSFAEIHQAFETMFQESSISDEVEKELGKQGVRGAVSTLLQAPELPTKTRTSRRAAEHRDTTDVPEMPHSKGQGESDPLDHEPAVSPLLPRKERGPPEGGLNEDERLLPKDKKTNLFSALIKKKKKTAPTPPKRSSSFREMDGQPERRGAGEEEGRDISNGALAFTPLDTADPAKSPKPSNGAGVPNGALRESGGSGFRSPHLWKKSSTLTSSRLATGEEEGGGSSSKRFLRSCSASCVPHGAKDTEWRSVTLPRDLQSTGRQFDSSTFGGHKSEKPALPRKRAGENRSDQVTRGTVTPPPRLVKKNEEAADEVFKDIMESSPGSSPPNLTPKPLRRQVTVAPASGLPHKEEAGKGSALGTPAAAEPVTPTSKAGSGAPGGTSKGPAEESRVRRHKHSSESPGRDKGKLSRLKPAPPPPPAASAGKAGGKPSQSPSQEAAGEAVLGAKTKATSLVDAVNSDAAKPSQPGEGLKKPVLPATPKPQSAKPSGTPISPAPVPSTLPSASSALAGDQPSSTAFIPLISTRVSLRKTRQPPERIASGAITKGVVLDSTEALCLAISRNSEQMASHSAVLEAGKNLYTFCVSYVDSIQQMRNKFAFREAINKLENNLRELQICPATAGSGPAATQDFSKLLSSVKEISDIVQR

PKGη(h) (human) = target: PKGη(h) (human)
DAPK1(h) (human) = DAPK1(h) (human) (UniProt P53355)
EGFR(h) (human) = EGFR(h) (human) (UniProt P00533)
CaMKIIγ(h) (human) = CaMKIIγ(h) (human) (UniProt Q13555)
ROCK-I(h) (human) = ROCK-I(h) (human) (UniProt Q13464)
Sequence of ROCK-I(h) (human) (Q13464 17-535 limits assumed): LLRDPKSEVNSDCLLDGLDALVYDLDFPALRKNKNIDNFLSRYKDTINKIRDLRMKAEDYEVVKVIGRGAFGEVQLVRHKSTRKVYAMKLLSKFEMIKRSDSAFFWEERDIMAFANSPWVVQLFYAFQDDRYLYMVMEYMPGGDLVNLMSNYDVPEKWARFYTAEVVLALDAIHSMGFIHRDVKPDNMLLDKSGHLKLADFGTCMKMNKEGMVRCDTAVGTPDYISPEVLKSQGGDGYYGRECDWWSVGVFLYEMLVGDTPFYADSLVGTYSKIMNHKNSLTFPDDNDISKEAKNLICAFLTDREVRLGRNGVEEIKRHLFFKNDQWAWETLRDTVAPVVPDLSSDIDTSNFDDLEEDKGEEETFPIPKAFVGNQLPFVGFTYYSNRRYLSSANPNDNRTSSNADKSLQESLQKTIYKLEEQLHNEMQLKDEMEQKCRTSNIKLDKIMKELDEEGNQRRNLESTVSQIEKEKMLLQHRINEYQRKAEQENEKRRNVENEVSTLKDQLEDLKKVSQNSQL

IR(h) (human) = IR(h) (human) (UniProt P06213)
BrSK2(h) (human) = target: T1, BrSK2(h) (human) (UniProt Q8IWQ3)
T1 sequence (looked up): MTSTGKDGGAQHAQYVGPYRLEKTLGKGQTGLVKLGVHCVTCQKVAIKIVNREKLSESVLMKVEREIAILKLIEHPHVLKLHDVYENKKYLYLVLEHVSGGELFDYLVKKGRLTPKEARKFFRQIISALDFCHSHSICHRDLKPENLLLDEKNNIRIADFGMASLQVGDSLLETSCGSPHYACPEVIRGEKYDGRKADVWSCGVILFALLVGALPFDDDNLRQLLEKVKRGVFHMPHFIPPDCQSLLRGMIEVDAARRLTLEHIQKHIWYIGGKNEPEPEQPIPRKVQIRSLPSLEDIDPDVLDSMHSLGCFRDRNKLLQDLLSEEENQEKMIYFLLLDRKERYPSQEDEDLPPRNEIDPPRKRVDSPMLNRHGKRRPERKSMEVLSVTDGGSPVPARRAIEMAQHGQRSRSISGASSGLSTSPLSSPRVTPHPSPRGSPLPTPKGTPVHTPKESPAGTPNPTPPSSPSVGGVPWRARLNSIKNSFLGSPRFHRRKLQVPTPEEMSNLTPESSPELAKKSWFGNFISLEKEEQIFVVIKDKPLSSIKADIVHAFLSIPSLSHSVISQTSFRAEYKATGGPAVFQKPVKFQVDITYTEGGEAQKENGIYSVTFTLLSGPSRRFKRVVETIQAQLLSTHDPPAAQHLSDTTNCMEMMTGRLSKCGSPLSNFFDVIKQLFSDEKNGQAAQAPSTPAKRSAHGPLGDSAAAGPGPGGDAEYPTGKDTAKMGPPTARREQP

Pim-2(h) (human) = Pim-2(h) (human) (UniProt Q9P1W9)
TAO1(h) (human) = target: T2, TAO1(h) (human) (UniProt Q7L7X3)
T2 sequence (looked up): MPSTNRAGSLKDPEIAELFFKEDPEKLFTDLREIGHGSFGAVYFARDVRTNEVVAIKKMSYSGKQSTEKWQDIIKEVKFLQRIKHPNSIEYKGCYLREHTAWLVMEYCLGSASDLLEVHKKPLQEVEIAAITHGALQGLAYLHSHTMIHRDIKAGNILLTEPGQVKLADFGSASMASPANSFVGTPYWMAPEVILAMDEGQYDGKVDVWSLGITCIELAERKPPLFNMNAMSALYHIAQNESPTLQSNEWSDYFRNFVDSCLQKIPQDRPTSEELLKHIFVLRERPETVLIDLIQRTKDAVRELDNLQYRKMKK

PRAK(h) (human) = PRAK(h) (human) (UniProt Q8IW41)
Tie2(Y897S)(h) (human) = Tie2(Y897S)(h) (human) (UniProt Q02763)
EphA4(h) (human) = EphA4(h) (human) (UniProt P54764)
Sequence of EphA4(h) (human) (P54764 570-986 limits assumed): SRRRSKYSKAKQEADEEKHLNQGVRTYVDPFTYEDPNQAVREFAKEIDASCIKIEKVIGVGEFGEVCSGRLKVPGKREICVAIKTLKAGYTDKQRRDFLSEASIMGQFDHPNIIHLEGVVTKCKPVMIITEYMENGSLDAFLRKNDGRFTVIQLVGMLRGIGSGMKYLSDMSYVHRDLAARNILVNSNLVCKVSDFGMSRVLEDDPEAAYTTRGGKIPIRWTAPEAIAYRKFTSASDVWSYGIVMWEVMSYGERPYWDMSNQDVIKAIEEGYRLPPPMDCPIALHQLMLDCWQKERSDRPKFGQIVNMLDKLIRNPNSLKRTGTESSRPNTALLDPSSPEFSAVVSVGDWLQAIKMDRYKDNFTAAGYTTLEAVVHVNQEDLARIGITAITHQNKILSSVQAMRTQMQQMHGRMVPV

PhKγ2(h) (human) = target: T3, PhKγ2(h) (human) (UniProt P15735)
T3 sequence (looked up): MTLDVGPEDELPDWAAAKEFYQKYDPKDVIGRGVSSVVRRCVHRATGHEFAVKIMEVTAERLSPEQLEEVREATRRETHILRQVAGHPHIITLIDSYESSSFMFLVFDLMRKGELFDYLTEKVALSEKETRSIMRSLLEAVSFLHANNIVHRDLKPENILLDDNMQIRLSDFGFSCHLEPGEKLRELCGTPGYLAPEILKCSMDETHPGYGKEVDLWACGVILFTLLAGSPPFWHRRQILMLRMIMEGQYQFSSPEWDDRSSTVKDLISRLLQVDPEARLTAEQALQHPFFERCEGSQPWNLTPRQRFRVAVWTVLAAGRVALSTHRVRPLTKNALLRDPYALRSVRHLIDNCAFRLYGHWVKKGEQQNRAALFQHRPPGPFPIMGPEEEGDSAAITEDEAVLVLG

[1] = target: IGF-1R(h), activated (human) (UniProt P08069)
JAK2(h) (human) = JAK2(h) (human) (UniProt O60674)
Sequence of JAK2(h) (human) (O60674 808-1132 limits assumed): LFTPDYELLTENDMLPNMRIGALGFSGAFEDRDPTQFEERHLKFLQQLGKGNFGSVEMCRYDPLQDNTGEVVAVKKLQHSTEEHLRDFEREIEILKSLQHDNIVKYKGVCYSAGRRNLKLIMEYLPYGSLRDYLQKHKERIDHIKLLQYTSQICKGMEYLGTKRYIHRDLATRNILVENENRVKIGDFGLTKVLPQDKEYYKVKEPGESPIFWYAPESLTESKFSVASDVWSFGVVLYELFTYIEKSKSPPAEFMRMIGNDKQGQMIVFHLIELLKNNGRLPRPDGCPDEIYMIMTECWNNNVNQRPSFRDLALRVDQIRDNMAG

Src(1-530)(h) (human) = Src(1-530)(h) (human) (UniProt P12931)
EphA3(h) (human) = target: T4, EphA3(h) (human) (UniProt P29320)
T4 sequence (looked up): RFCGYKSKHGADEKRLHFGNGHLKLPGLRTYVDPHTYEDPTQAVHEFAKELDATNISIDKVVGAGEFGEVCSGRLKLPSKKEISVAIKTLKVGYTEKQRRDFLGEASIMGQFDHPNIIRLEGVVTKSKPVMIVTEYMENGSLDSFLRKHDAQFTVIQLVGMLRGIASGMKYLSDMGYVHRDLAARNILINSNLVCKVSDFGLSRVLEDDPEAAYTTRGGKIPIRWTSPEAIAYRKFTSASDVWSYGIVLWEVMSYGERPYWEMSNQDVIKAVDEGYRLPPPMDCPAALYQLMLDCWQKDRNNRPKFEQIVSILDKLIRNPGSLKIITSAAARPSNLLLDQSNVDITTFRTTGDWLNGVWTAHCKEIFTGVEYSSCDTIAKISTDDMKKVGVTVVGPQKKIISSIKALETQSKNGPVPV

Sequence of Pyk2 (h) (human) (Q14289 whole entry): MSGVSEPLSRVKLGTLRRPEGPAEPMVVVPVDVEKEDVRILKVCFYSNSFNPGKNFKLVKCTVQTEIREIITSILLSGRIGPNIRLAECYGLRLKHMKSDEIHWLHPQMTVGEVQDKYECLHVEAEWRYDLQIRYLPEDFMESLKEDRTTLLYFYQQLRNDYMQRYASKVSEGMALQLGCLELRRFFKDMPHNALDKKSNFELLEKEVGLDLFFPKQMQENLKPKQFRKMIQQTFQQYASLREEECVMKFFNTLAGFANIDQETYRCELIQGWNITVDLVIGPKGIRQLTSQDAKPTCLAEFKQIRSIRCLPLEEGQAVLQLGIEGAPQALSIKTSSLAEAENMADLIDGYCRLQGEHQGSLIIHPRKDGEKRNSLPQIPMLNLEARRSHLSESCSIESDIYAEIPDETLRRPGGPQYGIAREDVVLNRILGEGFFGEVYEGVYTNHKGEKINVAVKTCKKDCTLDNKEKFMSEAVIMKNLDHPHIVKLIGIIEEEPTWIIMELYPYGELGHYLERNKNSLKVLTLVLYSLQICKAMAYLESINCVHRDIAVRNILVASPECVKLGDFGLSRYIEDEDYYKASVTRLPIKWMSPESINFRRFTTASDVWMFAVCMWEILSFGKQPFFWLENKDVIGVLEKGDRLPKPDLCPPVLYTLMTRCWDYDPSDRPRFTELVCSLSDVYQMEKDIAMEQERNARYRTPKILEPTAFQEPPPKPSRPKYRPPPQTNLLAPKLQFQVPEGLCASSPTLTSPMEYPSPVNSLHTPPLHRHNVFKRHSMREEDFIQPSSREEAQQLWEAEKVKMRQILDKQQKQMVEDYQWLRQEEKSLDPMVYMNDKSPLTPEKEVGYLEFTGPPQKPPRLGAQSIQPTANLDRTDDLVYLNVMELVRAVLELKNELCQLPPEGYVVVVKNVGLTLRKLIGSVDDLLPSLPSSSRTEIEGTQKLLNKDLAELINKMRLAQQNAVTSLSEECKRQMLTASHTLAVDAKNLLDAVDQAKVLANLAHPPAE
Sequence of Fyn(h) (human) (P06241 whole entry): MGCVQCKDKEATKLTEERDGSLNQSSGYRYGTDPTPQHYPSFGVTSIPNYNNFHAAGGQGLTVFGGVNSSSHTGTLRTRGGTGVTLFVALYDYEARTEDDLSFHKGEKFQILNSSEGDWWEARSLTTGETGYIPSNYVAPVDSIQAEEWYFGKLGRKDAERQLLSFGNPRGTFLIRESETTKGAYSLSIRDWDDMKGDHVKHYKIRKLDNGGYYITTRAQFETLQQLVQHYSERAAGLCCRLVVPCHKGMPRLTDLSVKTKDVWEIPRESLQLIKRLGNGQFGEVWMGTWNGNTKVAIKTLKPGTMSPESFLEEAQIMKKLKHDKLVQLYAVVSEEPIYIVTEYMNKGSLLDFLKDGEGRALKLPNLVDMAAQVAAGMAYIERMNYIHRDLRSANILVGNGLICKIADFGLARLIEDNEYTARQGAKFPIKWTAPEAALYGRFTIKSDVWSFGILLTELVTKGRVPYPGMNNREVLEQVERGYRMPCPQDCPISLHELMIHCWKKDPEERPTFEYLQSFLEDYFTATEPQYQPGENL

MMI-0500 (peptide)
% activity, 100 µM (WNK2(h) (human)): 8%
% activity, 100 µM (Fyn(h) (human)): 83%
% activity, 100 µM (SAPK2b(h) (human)): 42%
% activity, 100 µM (GRK6(h) (human)): 174%
% activity, 100 µM (Pyk2 (h) (human)): 46%
% activity, 100 µM (FAK(h) (human)): 94%
% activity, 100 µM (PKCα(h) (human)): 3%
% activity, 100 µM (Abl(Y253F)(h) (human)): 29%
% activity, 100 µM (PKGη(h) (human)): 45%
% activity, 100 µM (DAPK1(h) (human)): 0%
% activity, 100 µM (EGFR(h) (human)): -1%
% activity, 100 µM (CaMKIIγ(h) (human)): 3%
% activity, 100 µM (ROCK-I(h) (human)): 17%
% activity, 100 µM (IR(h) (human)): 95%
% activity, 100 µM (BrSK2(h) (human)): 84%
% activity, 100 µM (Pim-2(h) (human)): 46%
% activity, 100 µM (TAO1(h) (human)): 24%
% activity, 100 µM (PRAK(h) (human)): 95%
% activity, 100 µM (Tie2(Y897S)(h) (human)): 80%
% activity, 100 µM (EphA4(h) (human)): 48%
% activity, 100 µM (PhKγ2(h) (human)): 16%
% activity, 100 µM [1]: 45%
% activity, 100 µM (JAK2(h) (human)): 49%
% activity, 100 µM (Src(1-530)(h) (human)): 21%
% activity, 100 µM (EphA3(h) (human)): 33%
